Assay results published in publication PMC8938434, “Atomic resolution dynamics of cohesive interactions in phase-separated Nup98 FG domains” (Nature Communications, 2022).

Columns and labels:
prf.GLFG_(52 × 12) = molecular target: T1, prf.GLFG_(52 × 12); assay: partition of Atto488-coupled FG domains into FG particles (confocal laser scanning microscopy); 20 μM unlabelled prf.GLFG_(52 × 12) premixed with 0.5 μM Atto488-labelled species (GAFG: 3 μM); 20 mM NaPi pH 6.8, 150 mM NaCl, 5 mM DTT; 21 °C; apparent partition coefficient = Atto488 signal IN: OUT of the FG particles; conditions: both partners purified
T1 construct: engineered from the Tetrahymena thermophila MacNup98A FG domain; plasmid pSNG064; Isotope-labelled (15N, 13C) for NMR; also called perfect repeat; source: E. coli, inclusion bodies, Ni(II) chelate column, tag cut off with bdSENP1 protease, lyophilized; not shown: His14-ZZ-scSUMO, N-terminal, cleaved
T1 chain: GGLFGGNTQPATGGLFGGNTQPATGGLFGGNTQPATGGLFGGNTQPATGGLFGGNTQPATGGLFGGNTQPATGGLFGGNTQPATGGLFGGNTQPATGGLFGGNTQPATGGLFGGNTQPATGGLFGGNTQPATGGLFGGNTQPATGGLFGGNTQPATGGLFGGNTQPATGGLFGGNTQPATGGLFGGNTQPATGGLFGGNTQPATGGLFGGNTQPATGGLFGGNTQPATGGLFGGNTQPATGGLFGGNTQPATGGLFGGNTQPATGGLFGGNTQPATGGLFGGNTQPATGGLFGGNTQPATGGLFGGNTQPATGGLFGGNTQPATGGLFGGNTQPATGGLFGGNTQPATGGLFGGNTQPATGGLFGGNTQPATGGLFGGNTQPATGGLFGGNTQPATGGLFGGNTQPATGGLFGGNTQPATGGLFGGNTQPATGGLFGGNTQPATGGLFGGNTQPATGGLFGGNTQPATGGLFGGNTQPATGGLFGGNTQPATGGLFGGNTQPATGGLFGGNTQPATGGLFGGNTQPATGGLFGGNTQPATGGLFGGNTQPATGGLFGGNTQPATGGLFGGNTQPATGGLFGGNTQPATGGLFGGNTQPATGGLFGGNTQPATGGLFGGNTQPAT

[1] = molecular target: the molecule itself; assay: co-sedimentation; centrifugation assay of phase separation of GLFG_(52 × 12) variants at 25 °C, [FG domain] = 10 μM, [NaCl] = 150 mM, 20 mM NaPi pH 6.8, 5 mM DTT; repeated at 100 μM for GAFG, GLLG and GLAG; critical concentration = concentration of the supernatant

B1: Atto488-coupled GLFG_(52 × 12) (other)
chain: GSGLFGNTGGAPAGGLFGNTQTQQGGGLFGQPQQTQGGGLFGQTGATTGGGLFGGATNTAPGGLFGGGGGNPTGGLFGGNNNQQTGGLFGQGTTQTGGGLFGAPQNNQGGGLFGGGTTTTGGGLFGANTQTGGGGLFGGPSQPTTAGLFGSNNPTTGGGLFGQPANTNNGGLFGGQTNNQASGLFGANNQPPTNGLFGNNNKPQTAGLFGGATTTGNTGLFGGANNTGGGGLFGNNTNNPTGGLFGATNPAGGGGLFGGGATTGGGGLFGGGNTQTGGGLFGTANTTTAGGLFGGGNTQPQNGLFGNNNTPATGGLFGQTNNAAPQGLFGGTNNNAASGLFGQKPASANGVLTKPNEKNLCYAISNGTDFCIFELALTQRKLVKAGQLKPGAQAGGLFGQPAQNTQGGLFGGGGAATTPGLFGGAQNNTTGGLFGGQNTQAGGGLFGAPNNAAATGLFGAGNANTQGGLFGAKPAATGGGLFGQPAQTQAGGLFGNTAQPAGGGLFGGATTTPGGGLFGGNTAATGGGLFGGNTQGATGGLFGGQQPNNQGGLFGNTNANTGGGLFGGATTTTGGGLFGGSTGATGGGLFGGASQPAAGGLFGGAAPQQNSGLFGGATAGQTGGLFGGATQQQGGGLFGQTASNPGGGLFGAANATTQPGLFGGNNQAATSC
modifications: Atto488 (coupled)
partition coefficient (prf.GLFG_(52 × 12)): > 1000

B2: GLFG_(52 × 12) (other)
chain: GLFGNTGGAPAGGLFGNTQTQQGGGLFGQPQQTQGGGLFGQTGATTGGGLFGGATNTAPGGLFGGGGGNPTGGLFGGNNNQQTGGLFGQGTTQTGGGLFGAPQNNQGGGLFGGGTTTTGGGLFGANTQTGGGGLFGGPSQPTTAGLFGSNNPTTGGGLFGQPANTNNGGLFGGQTNNQASGLFGANNQPPTNGLFGNNNKPQTAGLFGGATTTGNTGLFGGANNTGGGGLFGNNTNNPTGGLFGATNPAGGGGLFGGGATTGGGGLFGGGNTQTGGGLFGTANTTTAGGLFGGGNTQPQNGLFGNNNTPATGGLFGQTNNAAPQGLFGGTNNNAASGLFGQKPASANGVLTKPNEKNLCYAISNGTDFCIFELALTQRKLVKAGQLKPGAQAGGLFGQPAQNTQGGLFGGGGAATTPGLFGGAQNNTTGGLFGGQNTQAGGGLFGAPNNAAATGLFGAGNANTQGGLFGAKPAATGGGLFGQPAQTQAGGLFGNTAQPAGGGLFGGATTTPGGGLFGGNTAATGGGLFGGNTQGATGGLFGGQQPNNQGGLFGNTNANTGGGLFGGATTTTGGGLFGGSTGATGGGLFGGASQPAAGGLFGGAAPQQNSGLFGGATAGQTGGLFGGATQQQGGGLFGQTASNPGGGLFGAANATTQPGLFGGNNQAATSC
critical concentration for phase separation [1]: 0.1 µM

B3: GXFG//V_(52 × 12) (other)
chain: GGFGNTGVAPAGGTFGNTQVQQGGGQFGQPQVTQGGGAFGQTGVTTGGGNFGGATVTAPGGGFGGGGVNPTGGNFGGNNVQQTGGTFGQGTVQTGGGNFGAPQVNQGGGTFGGGTVTTGGGQFGANTVTGGGGQFGGPSVPTTAGPFGSNNVTTGGGNFGQPAVTNNGGNFGGQTVNQASGQFGANNVPPTNGKFGNNNVPQTAGTFGGATVTGNTGNFGGANVTGGGGNFGNNTVNPTGGPFGATNVAGGGGTFGGGAVTGGGGTFGGGNVQTGGGTFGTANVTTAGGTFGGGNVQPQNGTFGNNNVPATGGNFGQTNVAAPQGNFGGTNVNAASGAFGQKPVSANGVLTKPNEKNLCYAISNGTDFCIFELALTQRKLVKAGQLKPGAQAGGQFGQPAVNTQGGAFGGGGVATTPGNFGGAQVNTTGGTFGGQNVQAGGGNFGAPNVAAATGAFGAGNVNTQGGAFGAKPVATGGGQFGQPAVTQAGGQFGNTAVPAGGGTFGGATVTPGGGAFGGNTVATGGGQFGGNTVGATGGPFGGQQVNNQGGAFGNTNVNTGGGTFGGATVTTGGGGFGGSTVATGGGQFGGASVPAAGGPFGGAAVQQNSGAFGGATVGQTGGQFGGATVQQGGGSFGQTAVNPGGGAFGAANVTTQPGQFGGNNVAATSC
critical concentration for phase separation [1]: 8 µM

B4: Atto488-coupled GAFG_(52 × 12) (other)
chain: GSGAFGNTGGAPAGGAFGNTQTQQGGGAFGQPQQTQGGGAFGQTGATTGGGAFGGATNTAPGGAFGGGGGNPTGGAFGGNNNQQTGGAFGQGTTQTGGGAFGAPQNNQGGGAFGGGTTTTGGGAFGANTQTGGGGAFGGPSQPTTAGAFGSNNPTTGGGAFGQPANTNNGGAFGGQTNNQASGAFGANNQPPTNGAFGNNNKPQTAGAFGGATTTGNTGAFGGANNTGGGGAFGNNTNNPTGGAFGATNPAGGGGAFGGGATTGGGGAFGGGNTQTGGGAFGTANTTTAGGAFGGGNTQPQNGAFGNNNTPATGGAFGQTNNAAPQGAFGGTNNNAASGAFGQKPASANGVLTKPNEKNLCYAISNGTDFCIFELALTQRKLVKAGQLKPGAQAGGAFGQPAQNTQGGAFGGGGAATTPGAFGGAQNNTTGGAFGGQNTQAGGGAFGAPNNAAATGAFGAGNANTQGGAFGAKPAATGGGAFGQPAQTQAGGAFGNTAQPAGGGAFGGATTTPGGGAFGGNTAATGGGAFGGNTQGATGGAFGGQQPNNQGGAFGNTNANTGGGAFGGATTTTGGGAFGGSTGATGGGAFGGASQPAAGGAFGGAAPQQNSGAFGGATAGQTGGAFGGATQQQGGGAFGQTASNPGGGAFGAANATTQPGAFGGNNQAATTSC
modifications: Atto488 (coupled)
partition coefficient (prf.GLFG_(52 × 12)): 4

B5: Atto488-coupled GXFG//L_(52 × 12) (other)
chain: GSGGFGNTGLAPAGGTFGNTQLQQGGGQFGQPQLTQGGGAFGQTGLTTGGGNFGGATLTAPGGGFGGGGLNPTGGNFGGNNLQQTGGTFGQGTLQTGGGNFGAPQLNQGGGTFGGGTLTTGGGQFGANTLTGGGGQFGGPSLPTTAGPFGSNNLTTGGGNFGQPALTNNGGNFGGQTLNQASGQFGANNLPPTNGKFGNNNLPQTAGTFGGATLTGNTGNFGGANLTGGGGNFGNNTLNPTGGPFGATNLAGGGGTFGGGALTGGGGTFGGGNLQTGGGTFGTANLTTAGGTFGGGNLQPQNGTFGNNNLPATGGNFGQTNLAAPQGNFGGTNLNAASGAFGQKPLSANGVLTKPNEKNLCYAISNGTDFCIFELALTQRKLVKAGQLKPGAQAGGQFGQPALNTQGGAFGGGGLATTPGNFGGAQLNTTGGTFGGQNLQAGGGNFGAPNLAAATGAFGAGNLNTQGGAFGAKPLATGGGQFGQPALTQAGGQFGNTALPAGGGTFGGATLTPGGGAFGGNTLATGGGQFGGNTLGATGGPFGGQQLNNQGGAFGNTNLNTGGGTFGGATLTTGGGGFGGSTLATGGGQFGGASLPAAGGPFGGAALQQNSGAFGGATLGQTGGQFGGATLQQGGGSFGQTALNPGGGAFGAANLTTQPGQFGGNNLAATTSC
modifications: Atto488 (coupled)
partition coefficient (prf.GLFG_(52 × 12)): > 1000

B6: GXFG//L_(52 × 12) (other)
chain: GGFGNTGLAPAGGTFGNTQLQQGGGQFGQPQLTQGGGAFGQTGLTTGGGNFGGATLTAPGGGFGGGGLNPTGGNFGGNNLQQTGGTFGQGTLQTGGGNFGAPQLNQGGGTFGGGTLTTGGGQFGANTLTGGGGQFGGPSLPTTAGPFGSNNLTTGGGNFGQPALTNNGGNFGGQTLNQASGQFGANNLPPTNGKFGNNNLPQTAGTFGGATLTGNTGNFGGANLTGGGGNFGNNTLNPTGGPFGATNLAGGGGTFGGGALTGGGGTFGGGNLQTGGGTFGTANLTTAGGTFGGGNLQPQNGTFGNNNLPATGGNFGQTNLAAPQGNFGGTNLNAASGAFGQKPLSANGVLTKPNEKNLCYAISNGTDFCIFELALTQRKLVKAGQLKPGAQAGGQFGQPALNTQGGAFGGGGLATTPGNFGGAQLNTTGGTFGGQNLQAGGGNFGAPNLAAATGAFGAGNLNTQGGAFGAKPLATGGGQFGQPALTQAGGQFGNTALPAGGGTFGGATLTPGGGAFGGNTLATGGGQFGGNTLGATGGPFGGQQLNNQGGAFGNTNLNTGGGTFGGATLTTGGGGFGGSTLATGGGQFGGASLPAAGGPFGGAALQQNSGAFGGATLGQTGGQFGGATLQQGGGSFGQTALNPGGGAFGAANLTTQPGQFGGNNLAATTS
critical concentration for phase separation [1]: 0.8 µM

B7: GLLG_(52 × 12) (other)
chain: GSGLLGNTGGAPAGGLLGNTQTQQGGGLLGQPQQTQGGGLLGQTGATTGGGLLGGATNTAPGGLLGGGGGNPTGGLLGGNNNQQTGGLLGQGTTQTGGGLLGAPQNNQGGGLLGGGTTTTGGGLLGANTQTGGGGLLGGPSQPTTAGLLGSNNPTTGGGLLGQPANTNNGGLLGGQTNNQASGLLGANNQPPTNGLLGNNNKPQTAGLLGGATTTGNTGLLGGANNTGGGGLLGNNTNNPTGGLLGATNPAGGGGLLGGGATTGGGGLLGGGNTQTGGGLLGTANTTTAGGLLGGGNTQPQNGLLGNNNTPATGGLLGQTNNAAPQGLLGGTNNNAASGLLGQKPASANGVLTKPNEKNLCYAISNGTDFCIFELALTQRKLVKAGQLKPGAQAGGLLGQPAQNTQGGLLGGGGAATTPGLLGGAQNNTTGGLLGGQNTQAGGGLLGAPNNAAATGLLGAGNANTQGGLLGAKPAATGGGLLGQPAQTQAGGLLGNTAQPAGGGLLGGATTTPGGGLLGGNTAATGGGLLGGNTQGATGGLLGGQQPNNQGGLLGNTNANTGGGLLGGATTTTGGGLLGGSTGATGGGLLGGASQPAAGGLLGGAAPQQNSGLLGGATAGQTGGLLGGATQQQGGGLLGQTASNPGGGLLGAANATTQPGLLGGNNQAATSC
critical concentration for phase separation [1]: > 100 µM
